These results are taken from patent publication US6780984B2, “Method for prognosing cancer and the proteins involved” (Northwestern University, priority 2000, dated 2004).

The subject of test [1] is DNA sequence ACTTTA (T-box). Put plainly: Electrophoretic mobility shift assay (EMSA). It counts as binding. To be noted: competed by cold T-wt but not by cold T-mut. As to the method: A non-specific complex (*) in the presence of GST-TRAITS was also formed in the presence of GST only. Labeled free DNA (F) was also indicated. […] NIH3T3 cells were transiently transfected with empty vector (PM) or vectors expressing the full-length rat TRAITS (residues 1-262 of SEQ ID NO:14), its N-terminal (residues 1-113 of SEQ ID NO:14), or its C-terminal (residues 114-262 of SEQ ID NO:14) plus pG5CAT reporter and pSV-β-gal for normalization. Assays were performed after 24 hours of transfection. The fold activation of CAT reporter is shown with S.E.M. Assays were performed in triplicate in two separate experiments.
Two oligonucleotides: T-wt: (5′-[…] GAAGCTTACGTCGCG-3′ SEQ ID NO:33) and T-mut: (5′-[…] CGAAGCTTACGTCGCG-3′ SEQ ID NO:34) were synthesized and amplified by PCR. T4 polynucleotide kinase (Promega) was used to label T-wt & T-mut by [γ-^32P] ATP (NEN). Recombinant GST-TRAITS fusion protein was incubated with 500 μg poly [dI-dC] and EMSA was performed according to the protocol provided by Gel Shift Assay System (Promega).

The next test has as its system prostate cancer cell. Briefly: Effect of calreticulin overexpression on other cellular functions. The format is cell-based.
The next test deals with PC3 cells. Put plainly: Soft agar assay (anchorage-independent growth). The format is cell-based, human. The note with it: stable overexpression in PC3 sublines. As to the method: FIGS. 4A-4D show the effect of calreticulin overexpression on colony formation of PC3 cells in a soft agar assay, PC3 (FIG. 4A), Mock (FIG. 4B), Crt 35 (FIG. 4C) and Crt 59 (FIG. 4). The soft agar assay was conducted in 6-well plates. The bottom agar is 2 ml 0.6% noble agar containing 1×RPMI 1640 medium supplemented with 10% fetal bovine serum (FBS). After the preparation of bottom agar, 1 ml of 0.3% top agar containing 5,000 cells and 1×RPMI 1640 medium supplemented with 10% FBS was added to form the top layer. The assay for each PC3 subline was carried out in duplicate and was repeated at least 3 times.
Colonies with greater than 125 um in diameter were counted in the quantification. Error bars represent standard error means (SEM).
Soft agar assay: The soft agar assay was conducted in 6-well plates. The bottom agar is 2 ml 0.6% noble agar containing 1×RPMI 1640 medium supplemented with 10% FBS. After the preparation of bottom agar, 1 ml of 0.3% top agar containing 5,000 cells and 1×RPMI 1640 medium supplemented with 10% FBS was added to form the top layer. The assay for each PC3 subline was carried out in duplicate and was repeated at least 3 times.

Test [2] relates to xenograft rat Dunning AT3.1 prostate cancer cells. Briefly: Metastasis of AT3.1 xenografts in nude mice. To be noted: restoration of calreticulin expression. The format is in vivo.
For test [3] the following is noted: Repeat A of the Proline-rich Domain; read-out: Kd, high affinity Ca++ binding; cited from earlier work.
The subject of test [4] is TSU prostate cancer cells. Briefly: Anchorage-independent growth of TSU cells. The note with it: overexpression in TSU cells. The format is cell-based, human. From the text:
Anchorage-independent growth in soft agar correlates with the metastatic potential of cancer cells [Cifone and Fidler, Proc. Nat. Acad. Sci. USA, 77:1039-43 (1980)].

Take “GST-TRAITS: E. coli-purified GST-TRAITS fusion protein”: the “binding to labeled T-box containing DNA” value in test [1] was “forms a DNA-protein complex”.

B1: calreticulin: multi-functional Ca++ binding protein of the endoplasmic reticulum, human SEQ ID NO:36; overexpressed from pcDNA3.1/crt (protein)
chain: MLLSVPLLLGLLGLAVAEPAVYFKEQFLDGDGWTSRWIESKHKSDFGKFVLSSGKFYGDEEKDKGLQTSQDARFYALSASFEPFSNKGQTLVVQFTVKHEQNIDCGGGYVKLFPNSLDQTDMHGDSEYNIMFGPDICGPGTKKVHVIFNYKGKNVLINKDIRCKDDEFTHLYTLIVRPDNTYEVKIDNSQVESGSLEDDWDFLPPKKIKDPDASKPEDWDERAKIDDPTDSKPEDWDKPEHIPDPDAKKPEDWDEEMDGEWEPPVIQNPEYKGEWKPRQIDNPDYKGTWIHPEIDNPEYSPDPSIYAYDNFGVLGLDLWQVKSGTIFDNFLITNDEAYAEEFGNETWGVTKAAEKQMKDKQDEEQRLKEEEEDKKRKEEEEAEDKEDDEDKDEDEEDEEDKEEDEEEDVPGQAKDEL
Regarding B1, in the test with prostate cancer cell, the “Ca++ ionophore-induced apoptosis” value is given as “inhibits Ca^((+))((+)) ionophore-induced apoptosis”, the cell attachment result is on record as “enhances cell attachment” and the cell proliferation result is recorded as “inhibits prostate cancer cell proliferation”. Further, the “colony formation in soft agar” value with PC3 cells is “significantly inhibited the size and number of the PC3 colonies”. Moreover, the metastasis of xenograft entry in test [2] is on record as “markedly inhibits the metastasis”. For the same molecule, the Kd in test [3] is 1.6 µM. For the same molecule, the anchorage-independent growth result in test [4] is on record as “markedly inhibited anchorage-independent growth”.
